Laboratory results from IntAct's records for PubMed 15475008.

B1: Calcium and integrin-binding protein 1 (Homo sapiens), Q99828-1 (parent)
chain: MGGSGSRLSKELLAEYQDLTFLTKQEILLAHRRFCELLPQEQRSVESSLRAQVPFEQILSLPELKANPFKERICRVFSTSPAKDSLSFEDFLDLLSVFSDTATPDIKSHYAFRIFDFDDDGTLNREDLSRLVNCLTGEGEDTRLSASEMKQLIDNILEESDIDRDGTINLSEFQHVISRSPDFASSFKIVL

Legend:
Settings in all cases: with psn2_human PSEN2, P49810
[1] = variants of: B1
[2] = variants of: B1; remark: listed apart in the source
[3] = variants of: B1; remark: listed apart in the source

| Variant | effect of a mutation on the interaction [1] | effect of a mutation on the interaction [2] | effect of a mutation on the interaction [3] |
| --- | --- | --- | --- |
| MGGSGSRLSKELLAEYQDLTFLTKQEILLAHRRFCELLPQEQRSVESSLRAQVPFEQILSLPELKANPFKERICRVFSTSPAKDSLSFEDFLDLLSVFSDTATPDIKSHYAFRIFDFDDDGTLNRENLSRLVNCLTGEGEDTRLSASEMKQLIDNILEESDIDRDGTINLSEFQHVISRSPDFASSFKIVL | disrupting interaction strength | decreasing interaction |  |
| MGGSGSRLSKELLAEYQDLTFLTKQEILLAHRRFCELLPQEQRSVESSLRAQVPFEQILSLPELKANPFKERICRVFSTSPAKDSLSFEDFLDLLSVFSDTATPDIKSHYAFRIFDFDDDGTLNREDLSRLVNCLTGEGEDTRLSASEMKQLIDNILEESDIDRDGTINLSQFQHVISRSPDFASSFKIVL | disrupting interaction strength | decreasing interaction | decreasing interaction strength |
| MGGSGSRLSKELLAEYQDLTFLTKQEILLAHRRFCELLPQEQRSVESSLRAQVPFEQILSLPELKANPFKERICRVFSTSPAKDSLSFEDFLDLLSVFSDTATPDIKSHYAFRIFDFDDDGTLNRENLSRLVNCLTGEGEDTRLSASEMKQLIDNILEESDIDRDGTINLSQFQHVISRSPDFASSFKIVL | disrupting interaction strength | decreasing interaction |  |
